To fix the notation:
B1: CPEB3 Ribozyme (parent)
chain: GGGGGCCACAGCAGAAGCGUUCACGUCGCGGCCCCUGUCAGAUUCUGGUGAAUCUGCGAAUUCUGCUGU

Results on 167 variants are retold here after the RNAGym collection of RNA variant scans (doi:10.7554/elife.80360).

In this series the parent is B1. The experiment in a line: self-cleavage, relative activity (ratio to wild type); higher = more cleavage; co-transcriptional.
With A51U G68A, the self-cleavage was determined as 0.999. Regarding A51U G68C, the self-cleavage stood at 1. With A51U G68U, the self-cleavage turned out to be 1.01. As to A52C G56C, the self-cleavage was 0.536. The same measure for A52C G56U: 0.741. For the variant A51G G56U, the self-cleavage was 0.95. Take A52C C66G: the self-cleavage is 0.782.

Consider A52C C66U, for which the self-cleavage is 0.912. A52C C66A: the self-cleavage is 0.68. On to A52G G58A, for which the self-cleavage amounted to 0.926. With A52G G58U the figure was 1.

U53G A59C: the self-cleavage stood at 0.422. As for U53G A59G, the self-cleavage is 0.894.

Take A51C U55A: the self-cleavage worked out at 0.643. Take A51C C63U: the self-cleavage worked out at 0.942. On to A51C C63A, for which the self-cleavage was 0.748.

In the case of U53C U61G, the self-cleavage was 0.58. The same measure for G50U G68C: 1.03; for U53G C54U: 0.815.

On to U53G C54G, for which the self-cleavage was determined as 0.673. Consider U53A G68A, for which the self-cleavage was determined as 1.03. The same measure for U53A G68U: 0.978. For U53A G68C, the self-cleavage came to 1.03. Consider U53A C66U, for which the self-cleavage amounted to 0.911. Regarding U53A C66G, the self-cleavage is 0.624. Consider A51G U55C, for which the self-cleavage came out at 0.839. In the case of A51G U55G, the self-cleavage stood at 0.63. As to A51C G68U, the self-cleavage came to 1.01. As for A51C G68C, the self-cleavage amounted to 0.996. Take A51C G68A: the self-cleavage came out at 0.961.

For the variant A51G C57U, the self-cleavage was 0.321. Regarding A51G C57A, the self-cleavage was determined as 0.399. With A51C C66G, the self-cleavage was 0.777. As for A51C C66U, the self-cleavage worked out at 0.937. With A51C C66A the figure was 0.628. As for A51U U53C, the self-cleavage was 0.863.

Regarding A51U U53G, the self-cleavage came out at 0.825. As to A52G U64C, the self-cleavage was found to be 0.912.

For A52G U64G, the self-cleavage was 0.957. In the case of A52G U64A, the self-cleavage came out at 0.911. Consider A51U A52G, for which the self-cleavage was found to be 0.982. Take A51U A52C: the self-cleavage is 0.969. Take A52U U62G: the self-cleavage turned out to be 0.82. As to A52U U62A, the self-cleavage is 0.829. A52U G65A: the self-cleavage amounted to 0.783. In the case of A51G C54G, the self-cleavage was 0.858. As to A51G C54U, the self-cleavage came to 0.986.

On to A51G C54A, for which the self-cleavage came out at 0.854. Take A51G C63G: the self-cleavage is 0.772. Turning to A51G C63A, the self-cleavage is 0.884. With A51G C63U, the self-cleavage came to 0.96. In the case of A52G G65A, the self-cleavage was found to be 0.945. With U53A U69A the figure was 1.01. For U53A U69G, the self-cleavage is 1.05.

For the variant A52C G68U, the self-cleavage was determined as 0.979. With A51G A59U the figure was 0.859.

On to A51G U67G, for which the self-cleavage came to 1.01. With A51G U67A the figure was 0.967; with A51G U67C, 0.99. Consider A52C U67A, for which the self-cleavage amounted to 0.963. On to U53A U55A, for which the self-cleavage was found to be 0.354. For A51U A59U, the self-cleavage came to 0.762. Turning to A51U A59C, the self-cleavage amounted to 0.645.

On to U53G C57U, for which the self-cleavage came to 0.311.

U53G C57A: the self-cleavage was 0.327. On to U53C U55A, for which the self-cleavage was determined as 0.364. For the variant U53C U55G, the self-cleavage amounted to 0.303. As to U53C U55C, the self-cleavage was 0.409.

For G50U U53A, the self-cleavage amounted to 0.999. In the case of A52U U67C, the self-cleavage was found to be 0.915. For the variant A52U U67G, the self-cleavage turned out to be 0.987. Consider U53G G65C, for which the self-cleavage stood at 0.704. With U53G G65U, the self-cleavage worked out at 0.606. With U53G G65A the figure was 0.707.

As for A52C G65A, the self-cleavage was determined as 0.88.

For A52C G65C, the self-cleavage was found to be 0.582.

In the case of A52C G65U, the self-cleavage worked out at 0.765.

Turning to A52U G68C, the self-cleavage was found to be 0.98. With A52U G68U, the self-cleavage stood at 0.992. For A52G U67A, the self-cleavage came to 1. G50U U67C: the self-cleavage was found to be 1.01. The same measure for U53C A60C: 0.31; for U53C A60G: 0.711; for U53C A60U: 0.397.

As for A52U A60G, the self-cleavage amounted to 0.808. A52U A60U: the self-cleavage worked out at 0.486. Turning to A52U A60C, the self-cleavage is 0.47. U53A U61A: the self-cleavage amounted to 0.694. As for U53A U61C, the self-cleavage is 0.583. For U53G A60U, the self-cleavage turned out to be 0.301. In the case of U53G A60G, the self-cleavage was 0.793. On to U53G A60C, for which the self-cleavage was 0.308. In the case of A51C U62A, the self-cleavage came out at 0.901. Turning to A51C U62C, the self-cleavage amounted to 0.76.

Take A52G U62C: the self-cleavage worked out at 0.915. The same measure for A52G U62G: 0.963; for A52G U62A: 0.871; for A52C C63U: 0.973. With A52C C63G the figure was 0.688; with U53A U64A, 0.822. As for U53A U64G, the self-cleavage amounted to 0.626. On to U53A U64C, for which the self-cleavage turned out to be 0.693. As for U53G U61C, the self-cleavage was found to be 0.473. For the variant U53G U61G, the self-cleavage was determined as 0.681. Regarding U53G U61A, the self-cleavage is 0.706. Take A51C A59G: the self-cleavage came to 0.96. Regarding A51C A59C, the self-cleavage amounted to 0.658. Consider A51C A59U, for which the self-cleavage was determined as 0.742. The same measure for U53A G65U: 0.587; for U53A G65A: 0.739; for U53A G65C: 0.552. For the variant A51U U64C, the self-cleavage is 0.788. With A51U U64G the figure was 0.826. For A51U U64A, the self-cleavage was found to be 0.799.

As for A51G A52C, the self-cleavage worked out at 0.94. With A51G A52U, the self-cleavage stood at 0.902. With A51C U67G the figure was 0.993. For A51C U67A, the self-cleavage was 0.961. Consider A52C U69G, for which the self-cleavage is 1.05. Consider A52C U69C, for which the self-cleavage came to 1.05. Consider G50U U64A, for which the self-cleavage is 0.954.

Take U53C: the self-cleavage is 0.947. With U53A, the self-cleavage came to 0.973. Take U53G: the self-cleavage was found to be 0.927. Turning to U53G U55C, the self-cleavage stood at 0.468. The same measure for U53G U55A: 0.417; for A51C A60G: 0.85.

In the case of A51C A60U, the self-cleavage worked out at 0.468. U53C G65A: the self-cleavage was found to be 0.472.

For the variant U53C G65C, the self-cleavage is 0.407. Regarding A52U C57G, the self-cleavage stood at 0.334. As for A52U C57A, the self-cleavage came to 0.453. Consider A52U C57U, for which the self-cleavage was found to be 0.309. On to A52U G58U, for which the self-cleavage amounted to 0.992. With A52U G58C, the self-cleavage is 0.954.

As to U53A U67A, the self-cleavage is 0.834. As to U53A U67G, the self-cleavage amounted to 0.938. A52C C54U: the self-cleavage came out at 0.856.

As for A52C C54A, the self-cleavage came out at 0.615. With A52C C54G the figure was 0.562.

In the case of U53A G58C, the self-cleavage amounted to 0.917.

With U53A G58A, the self-cleavage was 0.919. With U53A G58U, the self-cleavage was 0.944. Regarding A51U A60C, the self-cleavage stood at 0.378. With A51U A60U the figure was 0.438; with A51U A60G, 0.891; with A52G U69C, 1.06.

In the case of A52G U69A, the self-cleavage is 0.985. The same measure for A52G U69G: 1.07; for G50U U62A: 0.989.

Regarding G50U U62G, the self-cleavage was found to be 0.977.

As to A52G U61C, the self-cleavage was determined as 0.879.

Turning to A51U C54G, the self-cleavage came out at 0.677.

On to A51U C54U, for which the self-cleavage was found to be 0.932. Take A51G G68A: the self-cleavage stood at 1.01. A51G G68C: the self-cleavage was found to be 0.911. For A51G G68U, the self-cleavage was 1.03. In the case of A52U U53G, the self-cleavage was found to be 0.871. As for A52U U53C, the self-cleavage turned out to be 0.879.

As for A52U U53A, the self-cleavage came out at 0.981. On to A52C C57G, for which the self-cleavage was 0.26.

Regarding A51C C54G, the self-cleavage is 0.585. In the case of A51C C54U, the self-cleavage was 0.928. The same measure for A51C U64C: 0.787; for A51C U64A: 0.866. The same measure for A52C A59C: 0.527; for A52C A59G: 0.985.
